What was measured:
[1] = molecular target: T1, LepFNR (Leptospira interrogans, UniProt Q8EY89); test: X-ray crystal structure, […] Å; format: binding; conditions: noncovalently bound prosthetic group, extended conformation
T1 construct: gene LA_4327; expressed in E. coli (pET32JO-LepFNR) as thioredoxin fusion, thioredoxin removed with thrombin; FAD holoenzyme; C-terminal residue Tyr314

[2] = molecular target: T1, LepFNR; test: difference absorption spectroscopy titration; format: binding
From the text: difference absorption spectroscopy titration on LepFNR

[3] = molecular target: T2, P. sativum FNR (Lathyrus oleraceus, UniProt P10933); test: difference absorption spectroscopy titration; format: binding; conditions: read-out: Kd (μM, NADP^+)
T2 construct: gene PETH; plastidic enzyme
T2 sequence (P10933 53-360): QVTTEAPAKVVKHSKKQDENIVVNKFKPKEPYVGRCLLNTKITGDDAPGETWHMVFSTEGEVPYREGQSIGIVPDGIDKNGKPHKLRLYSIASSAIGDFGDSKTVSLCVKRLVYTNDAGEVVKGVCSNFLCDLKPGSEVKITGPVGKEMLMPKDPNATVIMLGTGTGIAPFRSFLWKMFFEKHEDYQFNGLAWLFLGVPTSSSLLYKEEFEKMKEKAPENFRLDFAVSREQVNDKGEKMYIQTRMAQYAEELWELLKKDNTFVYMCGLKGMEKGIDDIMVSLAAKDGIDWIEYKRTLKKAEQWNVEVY
From the text: difference absorption spectroscopy titration on P. sativum FNR

[4] = system: NC(=O)C1=CN([C@@H]2O[C@H](COP(=O)(O)OP(=O)(O)OC[C@H]3O[C@@H](n4cnc5c(N)ncnc54)[C@H](OP(=O)(O)O)[C@@H]3O)[C@@H](O)[C@H]2O)C=CC1; test: purified protein; conditions: 1 mM potassium ferricyanide, NADPH regenerated with glucose-6-phosphate dehydrogenase, 50 mM Tris-HCl, pH 8, 30°C
[5] = substrate: NC(=O)C1=CN([C@@H]2O[C@H](COP(=O)(O)OP(=O)(O)OC[C@H]3O[C@@H](n4cnc5c(N)ncnc54)[C@H](OP(=O)(O)O)[C@@H]3O)[C@@H](O)[C@H]2O)C=CC1; test: purified protein; format: biochemical, Lathyrus oleraceus; conditions: 1 mM potassium ferricyanide, NADPH regenerated with glucose-6-phosphate dehydrogenase, 50 mM Tris-HCl, pH 8, 30°C

T1 sequence (Q8EY89 entry or part of it): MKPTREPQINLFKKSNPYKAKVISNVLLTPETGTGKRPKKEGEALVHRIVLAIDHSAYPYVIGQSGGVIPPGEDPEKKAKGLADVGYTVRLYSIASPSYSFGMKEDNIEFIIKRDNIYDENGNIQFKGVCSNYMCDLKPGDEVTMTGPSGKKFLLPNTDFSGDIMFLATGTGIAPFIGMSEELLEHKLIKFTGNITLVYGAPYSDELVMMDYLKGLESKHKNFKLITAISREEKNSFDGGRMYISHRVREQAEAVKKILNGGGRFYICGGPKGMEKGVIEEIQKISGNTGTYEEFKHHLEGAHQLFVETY

Molecule: Cc1cc2nc3c(=O)[nH]c(=O)nc-3n(C[C@H](O)[C@H](O)[C@H](O)COP(=O)(O)OP(=O)(O)OC[C@H]3O[C@@H](n4cnc5c(N)ncnc54)[C@H](O)[C@@H]3O)c2cc1C [FAD]
- X-ray crystal structure, 2.43 Å [1]: LepFNR accommodates the FAD molecule in an extended conformation between the two enzyme domains

Molecule: NC(=O)c1ccc[n+]([C@@H]2O[C@H](COP(=O)(O)OP(=O)(O)OC[C@H]3O[C@@H](n4cnc5c(N)ncnc54)[C@H](OP(=O)(O)O)[C@@H]3O)[C@@H](O)[C@H]2O)c1 [NADP^+]
- Kd [2]: 43 ± 3 µM
- Kd [3]: 32 ± 2 µM

Molecule: LepFNR (Leptospira interrogans serovar Lai str. 56601)
- Km [4]: 19.5 ± 1.7 µM
- kcat [4]: 258 ± 13 s⁻¹
- kcat/Km [4]: 1.32e+07 M⁻¹ s⁻¹

B1: P. sativum FNR (Lathyrus oleraceus) (protein)
chain: T2 sequence (P10933 53-360)
notes: plastidic enzyme
- Km [5]: 19.0 ± 1.6 µM
- kcat [5]: 324 ± 16 s⁻¹
- kcat/Km [5]: 1.71e+07 M⁻¹ s⁻¹

— paper PMC2148051, “Crystal structures of Leptospira interrogans FAD-containing ferredoxin-NADP^+ reductase and its complex with NADP^+” (BMC Structural Biology, 2007)
